This note sets out measurements from patent US20250144172A1, “ANTI-FIBROTIC SIALIDASE INHIBITOR COMPOUNDS AND METHODS OF USE” (The Texas A&M University System, priority 2016, published 2025).

A short description of series [1]: recombinant human sialidase activity, 4MU-NANA cleavage at pH 6.4 and 7.0. It counts as biochemical. How it is done: In general, sialidase activity, including human sialidase activity, may be assessed at 37° C. in the presence of buffers ranging in pH from 3.7 to 7.4. Buffers with pH 3.7, 4.0, 4.6, 5.2 and 5.6 are 100 mM sodium acetate buffers. Buffers with pH 5.8, 6.4, 7.0 and 8.0 are based on Phosphate-Buffered Saline (PBS), with addition of 12 N HCl or 1 M NaOH to adjust the pH. Bovine serum albumin (BSA) is added to the buffer at a concentration of 100 ug/ml. Sialidase at a final concentration of 300 ng/ml is then added to the buffer. A sialidase inhibitor is then added to the mixture at a series of final concentrations. The reaction mixture is incubated for 30 minutes to allow the inhibitor to bind the sialidase. The fluorometric substrate 4MU-NANA [2′-(4-Methylumbelliferyl)-α-D-N-acetylneuraminic acid sodium salt hydrate is then added at a final concentration of 200 μM. Control reactions have no added inhibitor. The total volume of each reaction mixture is 0.1 ml. The cleavage of 4MU-NANA is then monitored by fluorescence every 20 minutes for 5 hours with excitation light at 360 nm and the fluorescence emission at 460 nm.
The fluorescence in the absence of sialidases is subtracted from all readings. The fluorescence of known concentrations of 4-methylumbelliferone is used to convert fluorescence to moles of product.
To determine if sialidases have enzymatic activity at the pH of the extracellular environment, sialidases may be assayed at pH 7.0, approximately corresponding to an extracellular pH in a normal tissue, at pH 6.4, approximately corresponding to an extracellular pH in a fibrotic tissue, or both.
In an example assay, recombinant human sialidases were assayed at pH 6.4, approximately corresponding to the extracellular pH that might occur in a fibrotic tissue, and at pH 7.0, approximately corresponding to a normal extracellular pH.

The test system of series [2] is human PBMC. In words: fibrocyte formation in human PBMC, serum-free medium. It counts as cell-based. As to conditions: 5 days; for ability of SAP to inhibit fibrocyte formation: 100 ng/ml sialidase with 1 μg/ml SAP; for fibrocyte formation / differentiation: 100 ng/ml sialidase, 10 μg/ml DANA or 1 μg/ml SAP. How it is done:
Human peripheral blood was collected from healthy adult volunteers who gave written consent and with specific approval from the Texas A&M University human subjects Institutional Review Board. Peripheral blood mononuclear cells (PBMC) were isolated from blood using Ficoll-Paque Plus (GE Healthcare Biosciences, Piscataway, NJ). Human PBMC were incubated in serum-free medium (FibroLife basal media (LM-0001, Lifeline Cell Technology, Walkersville, MD), supplemented with 10 mM HEPES (Sigma-Aldrich, St. Louis, MO), 1x non-essential amino acids (Sigma-Aldrich), 1 mM sodium pyruvate (Sigma-Aldrich), 2 mM glutamine (Invitrogen, Carlsbad, CA), 100 U/ml penicillin, 100 μg/ml streptomycin (Sigma-Aldrich), and 1x ITS-3 (Sigma-Aldrich) in the presence of absence of 100 ng/ml recombinant human sialidases (Origene, Rockville MD), 10 μg/ml DANA (Calbiochem, San Diego, CA), or 1 μg/ml human SAP (Calbiochem). After 5 days, fibrocytes were counted, and results are presented in FIG. 5.

Series [3] deals with human PBMC. The experiment in a line: TGF-β1 accumulation by human PBMC (antibody staining and ELISA). The format is cell-based. As to conditions: recombinant sialidase 200 ng/ml; five days. How it is done:
To determine if sialidases might cause cells to accumulate intracellular and extracellular TGF-β1, human PBMC were cultured with sialidases in 96 well plates at 5×10^5 cells/ml and 200 μl/well in FibroLife serum-free medium for five days, then air dried. The levels of TGF-β1 in or on the cells was detected by staining with an antibody against TGF-β1. Photomicrographs were analyzed by counting stained cells (FIG. 7B) and quantifying staining intensity using ImageJ (FIG. 7C).
PBMC were cultured in 96 well plates at 5×10^5 cells/ml and 200 μl/well in FibroLife serum-free medium. When the cells were plated, recombinant human sialidases were added to final concentrations of 200 ng/ml, and DANA or oseltamivir were added to 3 μM. After 5 days, culture supernatants were analyzed using a TGF-β1 ELISA kit (R&D Systems).

Series [4] has as its system human PBMC. The experiment in a line: IL-6 ELISA of supernatants of human PBMC cultured with NEU3. It counts as cell-based. As to conditions: presence or absence of serum; two or five days. How it is done:
To determine the effects of NEU3 on IL-6 production in human PBMC, human peripheral blood was collected from healthy volunteers who gave written consent and with specific approval from the Texas A&M University human subjects review board. PBMC were isolated from the blood using Ficoll-Paque density gradient centrifugation (GE Healthcare, Cincinnati, OH) following the manufacture's protocol. PBMCs were cultured at 10^5 cells/ml in each well of 96-well flat bottom tissue culture plates (VWR, Radnor, PA) with RPMI-1640 (VWR) supplemented with 10% bovine calf serum (BCS) (VWR), 100 U/ml penicillin, 100 μg/ml streptomycin, (VWR) and 2 mM glutamine (VWR) in a final volume of 200 μl per well. Cells were also cultured at 10^5 cells/ml in serum-free medium as described previously in Pilling, D., Vakil, V. & Gomer, R. H. Improved serum-free culture conditions for the differentiation of human and murine fibrocytes. […]
The culture supernatants were collected after two or five days and assayed using an IL-6 ELISA kit (BioLegend, San Diego, CA) following the manufacturer's protocol, reading absorbance with a SynergyMX plate reader (BioTek, Winooski, VT). Statistics were analyzed using Prism software (Graphpad, La Jolla, CA).

The subject of series [5] is human PBMC. The experiment in a line: sialidase staining of human PBMC cultured with recombinant sialidases. The format is cell-based. The source says:
In a similar experiment, cells were stained for NEU1, NEU2, NEU3, or NEU4 using antibodies.

B1: NEU3: recombinant human sialidase NEU3 (TP316537, Origene) (protein, UniProt Q9UQ49 1-428, looked up)
Sialidase-3: MEEVTTCSFNSPLFRQEDDRGITYRIPALLYIPPTHTFLAFAEKRSTRRDEDALHLVLRRGLRIGQLVQWGPLKPLMEATLPGHRTMNPCPVWEQKSGCVFLFFICVRGHVTERQQIVSGRNAARLCFIYSQDAGCSWSEVRDLTEEVIGSELKHWATFAVGPGHGIQLQSGRLVIPAYTYYIPSWFFCFQLPCKTRPHSLMIYSDDLGVTWHHGRLIRPMVTVECEVAEVTGRAGHPVLYCSARTPNRCRAEALSTDHGEGFQRLALSRQLCEPPHGCQGSVVSFRPLEIPHRCQDSSSKDAPTIQQSSPGSSLRLEEEAGTPSESWLLYSHPTSRKQRVDLGIYLNQTPLEAACWSRPWILHCGPCGYSDLAALEEEGLFGCLFECGTKQECEQIAFRLFTHREILSHLQGDCTSPGRNPSQFKSN
Turning to B1, the Sialidase activity is 15.2 ± 1.0 μmole/min/mg protein in series [1] (pH 6.4) and 8.3 ± 1.2 μmole/min/mg protein in series [1] (pH 7.0). For the same molecule, the “ability of SAP to inhibit fibrocyte formation” value in the series with human PBMC [2] was “partially counteracted”. The “accumulation of TGF-β1” value in the series with human PBMC [3] was “increased both cell-associated and extracellular TGF-β1”. The “extracellular accumulation of IL-6” value in the series with human PBMC [4] is reported as “significantly upregulated”.

B2: NEU4: recombinant human NEU4 (sialidase 4), human neuraminidase 4 (protein, UniProt Q8WWR8 1-484, looked up)
Sialidase-4: MGVPRTPSRTVLFERERTGLTYRVPSLLPVPPGPTLLAFVEQRLSPDDSHAHRLVLRRGTLAGGSVRWGALHVLGTAALAEHRSMNPCPVHDAGTGTVFLFFIAVLGHTPEAVQIATGRNAARLCCVASRDAGLSWGSARDLTEEAIGGAVQDWATFAVGPGHGVQLPSGRLLVPAYTYRVDRRECFGKICRTSPHSFAFYSDDHGRTWRCGGLVPNLRSGECQLAAVDGGQAGSFLYCNARSPLGSRVQALSTDEGTSFLPAERVASLPETAWGCQGSIVGFPAPAPNRPRDDSWSVGPGSPLQPPLLGPGVHEPPEEAAVDPRGGQVPGGPFSRLQPRGDGPRQPGPRPGVSGDVGSWTLALPMPFAAPPQSPTWLLYSHPVGRRARLHMGIRLSQSPLDPRSWTEPWVIYEGPSGYSDLASIGPAPEGGLVFACLYESGARTSYDEISFCTFSLREVLENVPASPKPPNLGDKPRGCCWPS
For the molecule B2, the Sialidase activity in series [1] (pH 6.4) was found to be 3.8 ± 0.8 μmole/min/mg protein; in series [1] (pH 7.0), 2.6 ± 0.9 μmole/min/mg protein. Further, in the series on human PBMC [2], the “ability of SAP to inhibit fibrocyte formation” value is on record as “partially counteracted”. In addition, the “fibrocyte formation / differentiation” value in the series on human PBMC [2] is given as “potentiated fibrocyte formation”. Besides, in the series on human PBMC [3], the “accumulation of TGF-β1” value is reported as “no significant effect”.

B3: NEU2: recombinant human NEU2 (sialidase 2), human neuraminidase 2 (protein, UniProt Q9Y3R4 1-380, looked up)
Sialidase-2: MASLPVLQKESVFQSGAHAYRIPALLYLPGQQSLLAFAEQRASKKDEHAELIVLRRGDYDAPTHQVQWQAQEVVAQARLDGHRSMNPCPLYDAQTGTLFLFFIAIPGQVTEQQQLQTRANVTRLCQVTSTDHGRTWSSPRDLTDAAIGPAYREWSTFAVGPGHCLQLHDRARSLVVPAYAYRKLHPIQRPIPSAFCFLSHDHGRTWARGHFVAQDTLECQVAEVETGEQRVVTLNARSHLRARVQAQSTNDGLDFQESQLVKKLVEPPPQGCQGSVISFPSPRSGPGSPAQWLLYTHPTHSWQRADLGAYLNPRPPAPEAWSEPVLLAKGSCAYSDLQSMGTGPDGSPLFGCLYEANDYEEIVFLMFTLKQAFPAEYLPQ
For the molecule B3, in series [1] (pH 6.4), the Sialidase activity was found to be 16.4 ± 1.2 μmole/min/mg protein. In addition, the Sialidase activity in series [1] (pH 7.0) turned out to be 8.9 ± 1.2 μmole/min/mg protein. In the series with human PBMC [2], the “ability of SAP to inhibit fibrocyte formation” value is on record as “partially counteracted” and the “fibrocyte formation / differentiation” value is on record as “potentiated fibrocyte formation”. For the same molecule, the “accumulation of TGF-β1” value in the series with human PBMC [3] was “increased both cell-associated and extracellular TGF-β1”. In addition, the “levels of NEU3 in PBMC” value in the series with human PBMC [5] is recorded as “upregulate levels of NEU3”.
